Measurements from patent publication US20250304706A1 (Astellas, published 2025).

B1: BTE-0147 (bispecific antibody, human IgG1, kappa, L234A L235A)
heavy: QVQLQQWGAGLLKPSETLSLTCAVYGGSFSPYYWSWIRQPPGKGLEWIGEINHSGSTNYNPSLKSRVTISVDTSKNQFSLKLSSVTAADTAVYYCARRAGDFDYWGQGTLVTVSSASTKGPSVFPLAPSSKSTSGGTAALGCLVKDYFPEPVTVSWNSGALTSGVHTFPAVLQSSGLYSLSSVVTVPSSSLGTQTYICNVNHKPSNTKVDKKVEPKSCDKTHTCPPCPAPEAAGGPSVFLFPPKPKDTLMISRTPEVTCVVVDVSHEDPEVKFNWYVDGVEVHNAKTKPREEQYNSTYRVVSVLTVLHQDWLNGKEYKCKVSNKALAAPIEKTISKAKGQPREPQVYTLPPSRDELTKNQVSLSCAVKGFYPSDIAVEWESNGQPENNYKTTPPVLDSDGSFFLVSKLTVDKSRWQQGNVFSCSVMHEALHNHYTQKSLSLSPGK
light: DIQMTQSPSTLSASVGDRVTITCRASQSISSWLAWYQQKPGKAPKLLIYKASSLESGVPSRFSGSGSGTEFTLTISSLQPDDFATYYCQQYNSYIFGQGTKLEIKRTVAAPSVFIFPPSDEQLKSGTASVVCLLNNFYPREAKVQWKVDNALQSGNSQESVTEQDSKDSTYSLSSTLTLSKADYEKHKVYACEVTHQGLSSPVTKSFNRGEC
scFv: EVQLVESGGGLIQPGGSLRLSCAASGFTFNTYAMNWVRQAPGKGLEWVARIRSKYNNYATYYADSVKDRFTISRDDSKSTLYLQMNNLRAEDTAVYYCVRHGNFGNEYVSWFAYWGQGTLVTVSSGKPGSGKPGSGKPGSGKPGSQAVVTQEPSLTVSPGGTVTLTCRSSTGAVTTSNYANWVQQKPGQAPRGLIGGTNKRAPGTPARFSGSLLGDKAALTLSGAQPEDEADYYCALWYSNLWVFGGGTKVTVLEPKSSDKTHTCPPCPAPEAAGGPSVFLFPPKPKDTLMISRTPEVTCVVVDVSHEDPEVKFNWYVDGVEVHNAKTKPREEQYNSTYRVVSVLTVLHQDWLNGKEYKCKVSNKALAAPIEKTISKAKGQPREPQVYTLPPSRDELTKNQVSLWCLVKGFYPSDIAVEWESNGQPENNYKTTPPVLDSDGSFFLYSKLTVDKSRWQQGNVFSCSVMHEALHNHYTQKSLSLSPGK
notes: anti-CD37/anti-CD3
B2: BTE-0152 (bispecific antibody, human IgG1, kappa, L234A L235A)
heavy: B1 heavy
light: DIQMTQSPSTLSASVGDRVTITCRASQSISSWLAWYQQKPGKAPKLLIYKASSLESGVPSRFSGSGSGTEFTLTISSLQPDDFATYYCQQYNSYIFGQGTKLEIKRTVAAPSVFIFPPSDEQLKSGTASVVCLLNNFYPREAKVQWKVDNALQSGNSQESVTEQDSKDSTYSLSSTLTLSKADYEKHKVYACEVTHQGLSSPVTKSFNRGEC
scFv: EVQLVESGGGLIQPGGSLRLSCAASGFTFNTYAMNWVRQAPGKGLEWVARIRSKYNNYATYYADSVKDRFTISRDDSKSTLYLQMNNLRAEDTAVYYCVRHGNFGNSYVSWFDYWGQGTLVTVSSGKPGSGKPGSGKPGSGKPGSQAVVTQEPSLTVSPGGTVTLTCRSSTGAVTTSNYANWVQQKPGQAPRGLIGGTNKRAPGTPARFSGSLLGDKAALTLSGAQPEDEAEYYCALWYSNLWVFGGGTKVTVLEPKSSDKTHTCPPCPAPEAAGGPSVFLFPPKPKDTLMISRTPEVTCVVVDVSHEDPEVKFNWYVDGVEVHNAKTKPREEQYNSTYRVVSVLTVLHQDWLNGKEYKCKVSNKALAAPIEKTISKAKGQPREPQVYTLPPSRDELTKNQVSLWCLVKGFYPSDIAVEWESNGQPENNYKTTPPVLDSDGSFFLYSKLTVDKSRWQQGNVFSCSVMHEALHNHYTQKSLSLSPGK
notes: anti-CD37/anti-CD3
B3: BTE-0149 (bispecific antibody, human IgG1, kappa, L234A L235A)
heavy: B1 heavy
light: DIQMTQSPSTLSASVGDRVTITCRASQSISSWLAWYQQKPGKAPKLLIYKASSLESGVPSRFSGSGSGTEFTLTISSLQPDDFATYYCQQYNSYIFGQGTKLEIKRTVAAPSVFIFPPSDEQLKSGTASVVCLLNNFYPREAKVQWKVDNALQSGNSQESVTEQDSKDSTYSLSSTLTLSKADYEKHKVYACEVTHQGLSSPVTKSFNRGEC
scFv: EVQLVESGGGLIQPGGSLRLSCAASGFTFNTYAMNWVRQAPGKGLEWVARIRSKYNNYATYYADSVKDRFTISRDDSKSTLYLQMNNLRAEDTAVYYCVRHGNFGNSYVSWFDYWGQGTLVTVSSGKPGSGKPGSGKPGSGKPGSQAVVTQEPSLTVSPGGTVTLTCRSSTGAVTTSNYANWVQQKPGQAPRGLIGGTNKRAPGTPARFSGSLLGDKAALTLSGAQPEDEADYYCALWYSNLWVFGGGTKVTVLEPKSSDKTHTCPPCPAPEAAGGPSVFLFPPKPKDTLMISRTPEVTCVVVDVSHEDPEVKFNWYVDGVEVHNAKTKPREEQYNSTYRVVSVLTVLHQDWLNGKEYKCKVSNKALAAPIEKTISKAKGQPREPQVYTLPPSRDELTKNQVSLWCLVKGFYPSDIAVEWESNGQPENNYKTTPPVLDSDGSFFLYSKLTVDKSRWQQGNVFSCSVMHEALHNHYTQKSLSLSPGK
notes: anti-CD37/anti-CD3
B4: BTE-0148 (bispecific antibody, human IgG1, kappa, L234A L235A)
heavy: B1 heavy
light: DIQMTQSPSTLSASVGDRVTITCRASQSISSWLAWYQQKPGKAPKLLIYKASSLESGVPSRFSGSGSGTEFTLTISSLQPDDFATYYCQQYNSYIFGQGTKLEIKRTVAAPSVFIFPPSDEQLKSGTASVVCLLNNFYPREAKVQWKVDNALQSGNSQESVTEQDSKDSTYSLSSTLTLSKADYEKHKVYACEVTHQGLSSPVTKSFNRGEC
scFv: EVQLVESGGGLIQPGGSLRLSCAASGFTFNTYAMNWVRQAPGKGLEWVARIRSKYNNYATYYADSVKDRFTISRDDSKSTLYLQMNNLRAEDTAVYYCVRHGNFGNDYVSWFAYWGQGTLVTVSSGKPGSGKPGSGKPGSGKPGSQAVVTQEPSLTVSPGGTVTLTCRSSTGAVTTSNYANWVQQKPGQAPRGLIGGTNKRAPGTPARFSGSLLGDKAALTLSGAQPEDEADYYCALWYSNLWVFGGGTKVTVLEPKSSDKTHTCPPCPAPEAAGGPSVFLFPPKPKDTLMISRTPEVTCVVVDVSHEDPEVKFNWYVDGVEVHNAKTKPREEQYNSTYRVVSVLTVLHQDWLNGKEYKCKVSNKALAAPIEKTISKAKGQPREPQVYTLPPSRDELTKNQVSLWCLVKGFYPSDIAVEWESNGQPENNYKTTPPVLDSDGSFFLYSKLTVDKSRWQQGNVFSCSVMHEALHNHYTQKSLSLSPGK
notes: anti-CD37/anti-CD3

Biological target: T1, CD3εδ complex protein (human; alpaca, UniProt P07766 23-126; P04234 22-105)
T1 construct: they are not part of the secreted protein; also called human CD3; CD386 complex protein
Experiment: ELISA, CD3 complex immobilized
Procedure: Binding activities of the anti-TSPAN8/anti-CD3 bispecific antibodies BTE-0001 to BTE-0067 to CD3 were evaluated by the ELISA. ELISA was performed according to a conventional method. The […] complex protein obtained in Example 1-3 was immobilized on a plate. BTE-0001 to BTE-0067 were used as the test antibodies. As a secondary antibody, Goat anti-Human IgG Fc, Multi-Species SP ads-HRP (2014-05, available from SouthernBiotech) was used. TMB+Substrate-Chromogen (S1599, available from Dako) was used as the detection reagent. Infinite M200pro (available from Tecan) was used to measure the absorbance. The EC50 values were calculated using variable slope model (four parameters) in GraphPad Prism with the maximum value in the same plate fixed at the top and the minimum value in the blank in the same plate fixed at the bottom. Since BTE-0001 was always measured in each plate as a control, only the EC50 value of BTE-0001 was expressed as the average value of a plurality of plates. […]

T1 sequence (P07766 23-126 limits assumed, stated change not applied, form in doubt, chain 1 of 2): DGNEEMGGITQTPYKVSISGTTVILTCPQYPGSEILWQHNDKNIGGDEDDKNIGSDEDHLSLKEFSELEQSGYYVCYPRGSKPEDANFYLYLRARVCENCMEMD
T1 sequence (P04234 22-105 limits assumed, stated change not applied, form in doubt, chain 2 of 2): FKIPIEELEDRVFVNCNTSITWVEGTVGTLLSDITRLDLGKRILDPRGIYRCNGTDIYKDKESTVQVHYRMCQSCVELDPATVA

| Binder | EC50 [µg/mL] |
| --- | --- |
| B1 | 0.0317 |
| B2 | 0.36 |
| B3 | 0.209 |
| B4 | 0.0364 |
